According to PMC4039369, “Nucleotide degradation and ribose salvage in yeast” (Molecular Systems Biology, 2013):

B1: Sdt1 (Saccharomyces cerevisiae S288C) (protein)
chain: MTVEYTASDLATYQNEVNEQIAKNKAHLESLTHPGSKVTFPIDQDISATPQNPNLKVFFFDIDNCLYKSSTRIHDLMQQSILRFFQTHLKLSPEDAHVLNNSYYKEYGLAIRGLVMFHKVNALEYNRLVDDSLPLQDILKPDIPLRNMLLRLRQSGKIDKLWLFTNAYKNHAIRCLRLLGIADLFDGLTYCDYSRTDTLVCKPHVKAFEKAMKESGLARYENAYFIDDSGKNIETGIKLGMKTCIHLVENEVNEILGQTPEGAIVISDILELPHVVSDLF
B2: Phm8 (Saccharomyces cerevisiae S288C) (protein)
chain: MTIAKDYRTIYRNQIKKQIRLNQEHLQSLTHLGSQINFEVDPPKLPDPDPARKVFFFDIDNTLYRKSTKVQLLMQQSLSNFFKYELGFDDDEAERLIESYYQEYGLSVKGLIKNKQIDDVLQYNTFIDDSLPLQDYLKPDWKLRELLINLKKKKLGKFDKLWLFTNSYKNHAIRCVKILGIADLFDGITYCHYDRPIEEEFICKPDPKFFETAKLQSGLSSFANAWFIDDNESNVRSALSMGMGHVIHLIEDYQYESENIVTKDHKNKQQFSILKDILEIPLIMDVEVYRPSSIAIKEMEELEEEGEAVNWSNQQINVQSS

Legend:
[1] = substrate: Nc1ccn([C@@H]2O[C@H](COP(=O)(O)O)[C@@H](O)[C@H]2O)c(=O)n1; assay: phosphate release (phosphatase) assay, Michaelis-Menten fit; assay type: biochemical, Saccharomyces cerevisiae; settings: 5 mM MgCl2; substrate range 0.001-9.5 mM
From the text: phosphate release (phosphatase) assay, Michaelis-Menten fit on Sdt1 | Kinetic characterization of Phm8 and Sdt1 toward their most preferred substrate CMP

[2] = substrate: Nc1ccn([C@@H]2O[C@H](COP(=O)(O)O)[C@@H](O)[C@H]2O)c(=O)n1; assay: as above; assay type: biochemical, Saccharomyces cerevisiae; settings: 5 mM MgCl2; substrate range 0.001-9.5 mM; remark: listed apart in the source
From the text: phosphate release (phosphatase) assay, Michaelis-Menten fit on Phm8 | Kinetic characterization of Phm8 and Sdt1 toward their most preferred substrate CMP

Row | Protein | Km [1] [µM] | kcat [1] [s⁻¹] | Km [2] [µM] | kcat [2] [s⁻¹]
1 | B1 | 1700 ± 200 | 0.54 ± 0.02 |  | 
2 | B2 |  |  | 63 ± 2 | 19.8 ± 0.1
